Assay results as given in patent US20240239878A1.

Tests used:
[1] = target: human DLL3 on SHP-77 cells (human) (UniProt Q9NYJ7); assay: flow cytometry, SHP-77 cells
[2] = target: Cynomolgus monkey DLL3 on HEK293 cells (HEK293-cyno DLL3) (Cynomolgus monkey); assay: flow cytometry, HEK293-cyno DLL3 cells
Sequence of Cynomolgus monkey DLL3 on HEK293 cells (HEK293-cyno DLL3) (Cynomolgus monkey) (Q9NYJ7 other isoform, or with tags, fused parts or gaps): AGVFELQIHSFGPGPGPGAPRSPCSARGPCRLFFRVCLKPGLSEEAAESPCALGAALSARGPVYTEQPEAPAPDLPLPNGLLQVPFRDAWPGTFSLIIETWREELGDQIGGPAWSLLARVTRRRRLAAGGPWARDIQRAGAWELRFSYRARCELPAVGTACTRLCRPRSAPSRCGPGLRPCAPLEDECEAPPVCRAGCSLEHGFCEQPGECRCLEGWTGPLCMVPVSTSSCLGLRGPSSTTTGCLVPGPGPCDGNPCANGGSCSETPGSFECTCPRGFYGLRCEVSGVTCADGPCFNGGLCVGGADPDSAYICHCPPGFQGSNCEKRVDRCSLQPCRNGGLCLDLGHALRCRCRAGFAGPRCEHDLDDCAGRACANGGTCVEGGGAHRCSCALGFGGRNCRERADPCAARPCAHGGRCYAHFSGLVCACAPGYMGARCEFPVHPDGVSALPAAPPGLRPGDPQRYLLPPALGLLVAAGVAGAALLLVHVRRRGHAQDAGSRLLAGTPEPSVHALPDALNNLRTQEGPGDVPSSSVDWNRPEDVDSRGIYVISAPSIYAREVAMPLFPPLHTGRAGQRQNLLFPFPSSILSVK

Sequence of human DLL3 on SHP-77 cells (human) (Q9NYJ7 27-618): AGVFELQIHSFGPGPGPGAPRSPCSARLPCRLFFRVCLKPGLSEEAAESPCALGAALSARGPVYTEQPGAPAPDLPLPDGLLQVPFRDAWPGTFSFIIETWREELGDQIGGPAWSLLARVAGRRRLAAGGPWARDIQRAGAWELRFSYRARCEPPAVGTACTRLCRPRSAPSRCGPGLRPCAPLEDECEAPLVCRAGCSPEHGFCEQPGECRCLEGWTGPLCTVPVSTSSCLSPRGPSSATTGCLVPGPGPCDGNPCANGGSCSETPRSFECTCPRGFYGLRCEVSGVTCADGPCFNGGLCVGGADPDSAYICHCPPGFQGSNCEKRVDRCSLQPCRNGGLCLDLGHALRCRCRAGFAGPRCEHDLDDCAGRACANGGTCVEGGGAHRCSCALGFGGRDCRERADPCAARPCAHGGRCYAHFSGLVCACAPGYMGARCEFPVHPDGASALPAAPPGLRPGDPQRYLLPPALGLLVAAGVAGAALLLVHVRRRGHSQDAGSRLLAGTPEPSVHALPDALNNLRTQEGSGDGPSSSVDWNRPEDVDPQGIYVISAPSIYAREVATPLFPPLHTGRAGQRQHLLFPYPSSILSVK

Top MFI [1]: 92 MFI | Top MFI [2]: 104 MFI
Substance: Negative control antibody
